Biological target: T1, PaeCascade (type I-F Csy complex: Csy1, Csy2, Csy3, Csy4 + crRNA) (Pseudomonas aeruginosa, UniProt Q02ML9;Q02MM0;Q02MM1;Q02MM2 1-434;1-327;1-342;1-187)
T1 sequence 1: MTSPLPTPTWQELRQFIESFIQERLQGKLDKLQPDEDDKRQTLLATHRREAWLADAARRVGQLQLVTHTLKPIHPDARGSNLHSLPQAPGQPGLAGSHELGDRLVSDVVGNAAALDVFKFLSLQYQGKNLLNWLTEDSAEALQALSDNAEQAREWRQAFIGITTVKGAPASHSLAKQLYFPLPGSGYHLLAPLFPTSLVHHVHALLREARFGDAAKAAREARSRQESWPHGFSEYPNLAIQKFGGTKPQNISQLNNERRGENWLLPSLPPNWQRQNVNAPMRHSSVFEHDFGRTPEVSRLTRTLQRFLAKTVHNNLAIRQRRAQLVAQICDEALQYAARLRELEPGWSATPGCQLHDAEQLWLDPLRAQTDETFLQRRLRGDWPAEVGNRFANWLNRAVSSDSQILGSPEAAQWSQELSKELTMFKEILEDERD
T1 sequence 2: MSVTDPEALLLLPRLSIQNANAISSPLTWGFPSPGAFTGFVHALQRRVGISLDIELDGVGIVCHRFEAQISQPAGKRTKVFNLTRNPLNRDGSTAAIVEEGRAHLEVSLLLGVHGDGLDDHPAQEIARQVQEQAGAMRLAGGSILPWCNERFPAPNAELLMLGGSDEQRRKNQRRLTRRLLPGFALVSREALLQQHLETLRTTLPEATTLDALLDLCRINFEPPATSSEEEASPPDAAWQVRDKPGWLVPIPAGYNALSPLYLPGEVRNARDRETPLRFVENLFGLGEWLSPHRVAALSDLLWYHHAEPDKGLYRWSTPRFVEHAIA
T1 sequence 3: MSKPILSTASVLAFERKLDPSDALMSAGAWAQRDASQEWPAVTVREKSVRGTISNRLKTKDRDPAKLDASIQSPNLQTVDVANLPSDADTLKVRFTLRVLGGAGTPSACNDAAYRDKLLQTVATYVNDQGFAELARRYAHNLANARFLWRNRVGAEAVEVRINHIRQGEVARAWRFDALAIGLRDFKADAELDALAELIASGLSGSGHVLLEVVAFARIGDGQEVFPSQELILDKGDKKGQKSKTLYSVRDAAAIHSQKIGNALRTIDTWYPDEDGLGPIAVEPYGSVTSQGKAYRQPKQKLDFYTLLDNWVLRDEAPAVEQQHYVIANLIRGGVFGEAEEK
T1 sequence 4: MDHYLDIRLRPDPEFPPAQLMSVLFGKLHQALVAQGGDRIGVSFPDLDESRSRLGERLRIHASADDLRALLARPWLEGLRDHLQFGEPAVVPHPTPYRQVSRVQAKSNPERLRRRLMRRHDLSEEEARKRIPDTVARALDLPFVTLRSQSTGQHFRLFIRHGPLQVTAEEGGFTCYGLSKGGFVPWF
Assay: EMSA; crRNA-loaded complex; 200 nM DNA; 1 mM EDTA; 50 mM HEPES-Na pH 7.0, 50 mM NaCl, 1 mM DTT, 1 mM EDTA, 10 IU RNase inhibitor, 200 nM dsDNA, 37 C 30 min; non-denaturing TBE-PAGE, GelRed stain
Conditions: protein: recombinant; copies: 1;1;6;1; blunt

B1: type I-F EMSA target dsDNA (dsDNA)
DNA 1: CTATCGAAGCAATACAGGTAGACGCGGACATCAAGCCCGCCGTGAAGGTGCAGCTTCTC
DNA 2: GAGAAGCTGCACCTTCACGGCGGGCTTGATGTCCGCGTCTACCTGTATTGCTTCGATAG
- binding result: binds

From paper PMC7305327, “Repurposing type I–F CRISPR–Cas system as a transcriptional activation tool in human cells”
